Measurements as given in patent US20240360242A1 (KISOJI BIOTECHNOLOGY, published 2024).
Residue numbers refer to the chain shown, from its start.

T1: recombinant human TROP2 extracellular domain (aa 1-274) comprising His tag (human, UniProt P09758 27-274)
T1 construct: Used here for all assays on recombinant human TROP2 (ELISA, immunoblot, SPR, crystal), although only some of them name the catalogue number; also called human recombinant TROP2; recombinant human TROP2 protein; not shown: His tag
T1 sequence: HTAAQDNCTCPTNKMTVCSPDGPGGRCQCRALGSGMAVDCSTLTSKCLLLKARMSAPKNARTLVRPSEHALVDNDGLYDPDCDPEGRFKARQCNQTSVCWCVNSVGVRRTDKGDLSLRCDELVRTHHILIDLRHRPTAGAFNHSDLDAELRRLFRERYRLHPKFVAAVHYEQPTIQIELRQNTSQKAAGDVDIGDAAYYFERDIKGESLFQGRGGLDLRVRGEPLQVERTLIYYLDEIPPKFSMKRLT

B1: KD054 (antibody, V domains shown)
VH: QVQLQESGGGLIQPGGSLRLSCAASGFTFSGSDMSWVRQAPGKGLEWVSYITSGGTTYYADTVKGRFTISRDNSKNTLYLQMNSLRAEDTAVYRCAKSRLTDSHYVEDAWGQGTLVTVSS
notes: KD005 humanized variant
B2: KD045 (antibody, V domains shown)
VH: B1 VH with Q1E, Q5L, I12V
notes: KD005 humanized variant
B3: KD044 (antibody, V domains shown)
VH: B1 VH with Q1E, Q5L, I12V, R94Y
notes: KD005 humanized variant
B4: KD043 (antibody, V domains shown)
VH: B1 VH with Q1E, Q5L, I12V, Y50A, R94Y
notes: KD005 humanized variant
B5: KD030 (antibody, V domains shown)
VH: QVQLQESGGGLVQPGGSLRLSCAASGFPFSSADMSWVRQAPGKGLEWVSYINADGSKTYYADTVKGRFTISRDNSKNTLYLQMNSLRAEDTAVYRCARAKLTDTHYVEDYWGQGTMVTVSS
notes: KD002 humanized variant
B6: KD035 (antibody, V domains shown)
VH: B5 VH with L45P
notes: KD002 humanized variant
B7: KD023 (antibody, V domains shown)
VH: B5 VH with Q5V, L45P, A61P, S75A, R95Y, M116Q
notes: KD002 humanized variant
B8: KD039 (antibody, V domains shown)
VH: B5 VH with L11M, M116Q
notes: KD002 humanized variant
B9: KD028 (antibody, V domains shown)
VH: B5 VH with Q1E, Q5L, Y50V, R95Y
notes: KD002 humanized variant
B10: KD040 (antibody, V domains shown)
VH: B5 VH with G44Q, L45R
notes: KD002 humanized variant
B11: KD042 (antibody, V domains shown)
VH: B5 VH with D54N
notes: KD002 humanized variant
B12: KD041 (antibody, V domains shown)
VH: B5 VH with D54E
notes: KD002 humanized variant
B13: KD031 (antibody, V domains shown)
VH: B5 VH with Q1E
notes: KD002 humanized variant
B14: KD021 (antibody, V domains shown)
VH: B5 VH with Q1E, Q5V, Y59S, S75A, R95Y, M116L
notes: KD002 humanized variant
B15: KD032 (antibody, V domains shown)
VH: B5 VH with Q5L
notes: KD002 humanized variant
B16: KD022 (antibody, V domains shown)
VH: B5 VH with Q1E, Q5V, L45P, S75A, R95Y, M116Q
notes: KD002 humanized variant
B17: KD026 (antibody, V domains shown)
VH: B5 VH with L11M, P14V, L45P, A61P, S75A, R87K, A88P, M116Q
notes: KD002 humanized variant
B18: KD025 (antibody, V domains shown)
VH: B5 VH with Q5V, P14V, L45P, A61P, S75A, R87K, A88P, M116Q
notes: KD002 humanized variant
B19: KD027 (antibody, V domains shown)
VH: B5 VH with L11M, P14V, L45P, A61P, T63S, S75A, R87K, A88P, M116Q
notes: KD002 humanized variant
B20: KD037 (antibody, V domains shown)
VH: B5 VH with S85N
notes: KD002 humanized variant
B21: KD038 (antibody, V domains shown)
VH: B5 VH with V93L
notes: KD002 humanized variant
B22: KD036 (antibody, V domains shown)
VH: B5 VH with A61P
notes: KD002 humanized variant
B23: KD034 (antibody, V domains shown)
VH: B5 VH with R95Y
notes: KD002 humanized variant
B24: KD029 (antibody, V domains shown)
VH: B5 VH with L45P, A61P, S85N, V93L
notes: KD002 humanized variant
B25: KD033 (antibody, V domains shown)
VH: B5 VH with Y50V
notes: KD002 humanized variant
B26: KD024 (antibody, V domains shown)
VH: B5 VH with Q5V, L45P, A61P, S75A, M116Q
notes: KD002 humanized variant
B27: KD060 (antibody, V domains shown)
VH: B1 VH with A60P
notes: KD005 humanized variant
B28: KD051 (antibody, V domains shown)
VH: B1 VH with I12V, L45P, A60P, S74A, R86K, A87P, E88D, V92L, L115Q
notes: KD005 humanized variant
B29: KD049 (antibody, V domains shown)
VH: B1 VH with I12V, L45P, A60P, L115Q
notes: KD005 humanized variant
B30: KD058 (antibody, V domains shown)
VH: B1 VH with R94Y
notes: KD005 humanized variant
B31: KD061 (antibody, V domains shown)
VH: B1 VH with E88D
notes: KD005 humanized variant
B32: KD062 (antibody, V domains shown)
VH: B1 VH with V92L
notes: KD005 humanized variant
B33: KD047 (antibody, V domains shown)
VH: B1 VH with Q5L, I12V, L45P
notes: KD005 humanized variant
B34: KD053 (antibody, V domains shown)
VH: B1 VH with L45P, A60P, E88D, V92L
notes: KD005 humanized variant
B35: KD063 (antibody, V domains shown)
VH: B1 VH with Q13E, L115Q
notes: KD005 humanized variant
B36: KD059 (antibody, V domains shown)
VH: B1 VH with L45P
notes: KD005 humanized variant
B37: KD064 (antibody, V domains shown)
VH: B1 VH with V37Y, L45R
notes: KD005 humanized variant with framework 2 changes
B38: KD048 (antibody, V domains shown)
VH: B1 VH with I12V, L45P, A60P, R94Y, L115Q
notes: KD005 humanized variant

Target: T1, recombinant human TROP2 extracellular …
Assay: ELISA, coated rh TROP2, normalized to KD005

Row | EC50 relative to KD005 | Binder
1 | 0.93 ratio to KD005 | B1
2 | 1.01 ratio to KD005 | B2
3 | 0.9 ratio to KD005 | B3
4 | 1.01 ratio to KD005 | B4

Target: T1, recombinant human TROP2 extracellular …
Assay: ELISA, coated rh TROP2
Experimental: (§1) Human TROP2 recombinant proteins were coated on 96-well ELISA plates at the concentration of 1 μg/mL. Plates were covered with adhesive plate cover and stored at 4° C. overnight. The next day, plates were washed 3× with washing buffer (PBS with 0.1% Tween™ 20). Plates were blocked with 2% fat-free BSA in washing buffer for 1 hour at 37° C. During the incubation time, the TROP2 reference antibodies, as well as the humanized variants, were diluted in the blocking buffer to the indicated concentrations. […] After blocking, the blocking buffer was removed from the wells and 100 μL of anti-TROP2 sdAbs dilutions were transferred to the corresponding wells. Plates were covered with adhesive plates cover and incubated at 37° C. for 1 hour. During the primary antibody incubation, the secondary antibody (goat anti-human IgG, HRP conjugated) was diluted 1 in 5000 with the blocking buffer. Plates were washed 3× with blocking buffer, followed by secondary antibody incubation for another 1 hour at 37° C. After the secondary antibody incubation, plates were washed 3× with washing buffer and added with 100 μL of ELISA chemiluminescent substrate (Thermofisher). The luminescence signal was detected by SpectraMax i3x at […].

Row | EC50 | Binder
5 | 0.12 nM | B5
6 | 0.12 nM | B6
7 | 0.08 nM | B7
8 | 0.15 nM | B8
9 | 0.14 nM | B9
10 | 0.05 nM | B10
11 | 0.07 nM | B11
12 | 0.15 nM | B12
13 | 0.11 nM | B13
14 | 4.3 nM | B14
15 | 0.15 nM | B15
16 | 0.07 nM | B16
17 | 0.1 nM | B17
18 | 0.11 nM | B18
19 | 0.09 nM | B19
20 | 0.18 nM | B20
21 | 0.26 nM | B21
22 | 0.13 nM | B22
23 | 0.13 nM | B23
24 | 0.16 nM | B24
25 | 0.13 nM | B25
26 | 0.09 nM | B26

Target: T1, recombinant human TROP2 extracellular …
Assay: ELISA, coated rh TROP2
Remark: another data set of the same source
Experimental: as §1

Row | EC50 | EC50% to KD005 | Binder
27 | 0.07 nM | 0.875 ratio to KD005 | B1
28 | 0.11 nM | 1.38 ratio to KD005 | B27
29 | 0.12 nM | 1.5 ratio to KD005 | B28
30 | 0.14 nM | 1.75 ratio to KD005 | B29
31 | 0.1 nM | 1.25 ratio to KD005 | B30
32 | 0.12 nM | 1.5 ratio to KD005 | B31
33 | 0.09 nM | 1.12 ratio to KD005 | B2
34 | 0.14 nM | 1.75 ratio to KD005 | B32
35 | 0.08 nM | 1 ratio to KD005 | B3
36 | 0.14 nM | 1.75 ratio to KD005 | B33
37 | 0.1 nM | 1.25 ratio to KD005 | B34
38 | 0.12 nM | 1.5 ratio to KD005 | B35
39 | 0.1 nM | 1.25 ratio to KD005 | B36
40 | 0.09 nM | 1.12 ratio to KD005 | B4
41 | 0.14 nM | 1.75 ratio to KD005 | B37
42 | 0.11 nM | 1.38 ratio to KD005 | B38
